# Assay results taken from PMC12519218 (2025).
# B1: ATRAP-HA [not stated] / GST-AP4μ^160–453 [not stated] (parent complex)
# chain 1: MELPAVNLKVILLGHWLLTTWGCIVFSGSYAWANFTILALGVWAVAQRDSIDAISMFLGGLLATIFLDIVHISIFYPRVSLTDTGRFGVGMAILSLLLKPLSCCFVYHMYRERGGELLVHTGFLGSSQDRSAYQTIDSAEAPADPFAVPEGRSQDARGY
# chain 2: QQSKVAPSSAASRPVLSSRSDQSQKNEVFLDVVERLSVLIASNGSLLKVDVQGEIRLKSFLPSGSEMRIGLTEEFCVGKSELRGYGPGIRVDEVSFHSSVNLDEFESHRILRLQPPQGELTVMRYQLSDDLPSPLPFRLFPSVQWDRGSGRLQVYLKLRCDLLSKSQALNVRLHLPLPRGVVSLSQELSSPEQKAELAEGALRWDLPRVQGGSQLSGLFQMDVPGPPGPPSHGLSTSASPLGLGPASLSFELPRHTCSGLQVRFLRLAFRPCGNANPHKWVRHLSHSDAYVIRI
# Variants of: B1
# Assay: GST pull-down, immunoblot quantification; bound protein normalized to the 2% loading; sum of both groups normalized to 1 in each replicate; n = 4, mean ± SD; parent: 0.71; read off a plot
row,Variant,response
1,chain 1 MELPAVNLKVILLGHWLLTTWGCIVFSGSYAWANFTILALGVWAVAQRDSIDAISMFLGGLLATIFLDIVHISIFYPRVSLTDTGRFGVGMAILSLLLKPLSCCFVYHMYRERGGELLVHTGFLGSSQDRSAAQTIDSAEAPADPFAVPEGRSQDARGY,~0.29
